One molecule from US9969812B2, “Anti human Notch4 antibody” (Eisai R&D Management Co., Ltd., priority 2015, dated 2018) can be followed below.

This assay deals with T1, Human Notch4-NRR Fusion Protein (Homo sapiens, UniProt Q99466).
T1 construct: Human Notch4-NRR domain Fc fusion proteins were expressed with a CHO cell line; Fc; made in house; host or cells: CHO cell line (antigen captured from culture supernatant)
T1 sequence (Q99466 1046-1445 limits assumed): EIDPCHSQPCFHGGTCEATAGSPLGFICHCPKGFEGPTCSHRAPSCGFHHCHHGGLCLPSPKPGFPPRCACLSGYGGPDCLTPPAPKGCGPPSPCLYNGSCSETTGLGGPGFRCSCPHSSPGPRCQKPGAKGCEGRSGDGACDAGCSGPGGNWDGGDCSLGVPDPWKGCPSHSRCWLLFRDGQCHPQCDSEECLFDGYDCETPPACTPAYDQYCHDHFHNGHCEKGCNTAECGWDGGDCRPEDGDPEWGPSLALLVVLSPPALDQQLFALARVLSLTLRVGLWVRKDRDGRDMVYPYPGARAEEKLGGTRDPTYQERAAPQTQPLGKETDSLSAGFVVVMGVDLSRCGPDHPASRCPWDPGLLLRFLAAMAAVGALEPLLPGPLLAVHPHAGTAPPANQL
Briefly: Kinetic analysis, captured Human Notch4-NRR Fc fusion protein, humanized antibody injected. In kind it is binding. The following applies: Table 30, Human Notch4-NRR Fc fusion. The protocol:
Kinetic analysis of further anti-Notch4 inhibitory humanized antibodies was carried out as follows. Human Notch4-NRR domain Fc fusion proteins were expressed with a CHO cell line. The antigen in the culture supernatant was captured by the anti-human Notch4 antibody fixed on a CM5 sensor chip that recognizes different epitopes of human Notch4. The humanized anti-human Notch4 antibody was then injected onto the sensor chip at various concentrations. The interaction and disassociation constants thereof were calculated according to manufacturer's instructions.
In the table below, e.g. the description “HK2L3 (Lys-)” means that the heavy chain variable region of the humanized anti-human Notch4 antibody employed in the experiment is the heavy chain variable region of the humanized anti-human Notch4 antibody heavy chain HK2 in Example 1, light chain variable region is the light chain variable region of the humanized anti-human Notch4 antibody light chain L3 in Example 1, and lysine (Lys) located at the C-terminal of the heavy chain of a common human antibody is deleted in this antibody. Those without the description “(Lys-)” mean that Lys located at the C-terminal of the heavy chain of the human antibody is not deleted.

B1: Antibody D: humanized anti-human Notch4 antibody, heavy chain variable region HK3, light chain variable region L5, C-terminal Lys deleted (antibody)
heavy: EVQLVESGGGLVQPGGSLRLSCAASGFTFSSYGMSWVRQAPGKGLELVATINSNGGRTYYPDSVKGRFTISRDNSKNTLYLQMGSLKAEDMAVYYCARDQGFAYWGQGTLVTVSSASTKGPSVFPLAPCSRSTSESTAALGCLVKDYFPEPVTVSWNSGALTSGVHTFPAVLQSSGLYSLSSVVTVPSSNFGTQTYTCNVDHKPSNTKVDKTVERKCCVECPPCPAPPAAAPSVFLFPPKPKDTLMISRTPEVTCVVVDVSHEDPEVQFNWYVDGVEVHNAKTKPREEQFNSTFRVVSVLTVVHQDWLNGKEYKCKVSNKGLPAPIEKTISKTKGQPREPQVYTLPPSREEMTKNQVSLTCLVKGFYPSDIAVEWESNGQPENNYKTTPPMLDSDGSFFLYSKLTVDKSRWQQGNVFSCSVMHEALHNHYTQKSLSLSPG
light: DIQMTQSPSSLSASVGDRVTITCKASQDVGTAVAWYQQKPGKSPKLLIYWASTRHTGVPSRFSGSGSGTDFTLTISSLQPEDVATYFCQQYSSYPWTFGQGTKVEIKRTVAAPSVFIFPPSDEQLKSGTASVVCLLNNFYPREAKVQWKVDNALQSGNSQESVTEQDSKDSTYSLSSTLTLSKADYEKHKVYACEVTHQGLSSPVTKSFNRGEC
B1: the “Rmax1 (RU)” value was found to be 37 RU, the “ka” value was 1.82e+06 M⁻¹ s⁻¹ and the “kd” value came to 0.000863 s⁻¹.
